Assay in all cases: flow cytometry on fixed transfected C2C12 cells
(In flow cytometry, cells or beads pass a laser one at a time.)

Test [1] deals with T1, human integrin alpha-2-mCherry expressed on C2C12 cells (human, UniProt P17301 30-1181).
T1 construct: whole, on cells; Transfected C2C12 cells fixed with 2% paraformaldehyde/PBS before staining; not shown: mCherry tag
T1 sequence (looked up): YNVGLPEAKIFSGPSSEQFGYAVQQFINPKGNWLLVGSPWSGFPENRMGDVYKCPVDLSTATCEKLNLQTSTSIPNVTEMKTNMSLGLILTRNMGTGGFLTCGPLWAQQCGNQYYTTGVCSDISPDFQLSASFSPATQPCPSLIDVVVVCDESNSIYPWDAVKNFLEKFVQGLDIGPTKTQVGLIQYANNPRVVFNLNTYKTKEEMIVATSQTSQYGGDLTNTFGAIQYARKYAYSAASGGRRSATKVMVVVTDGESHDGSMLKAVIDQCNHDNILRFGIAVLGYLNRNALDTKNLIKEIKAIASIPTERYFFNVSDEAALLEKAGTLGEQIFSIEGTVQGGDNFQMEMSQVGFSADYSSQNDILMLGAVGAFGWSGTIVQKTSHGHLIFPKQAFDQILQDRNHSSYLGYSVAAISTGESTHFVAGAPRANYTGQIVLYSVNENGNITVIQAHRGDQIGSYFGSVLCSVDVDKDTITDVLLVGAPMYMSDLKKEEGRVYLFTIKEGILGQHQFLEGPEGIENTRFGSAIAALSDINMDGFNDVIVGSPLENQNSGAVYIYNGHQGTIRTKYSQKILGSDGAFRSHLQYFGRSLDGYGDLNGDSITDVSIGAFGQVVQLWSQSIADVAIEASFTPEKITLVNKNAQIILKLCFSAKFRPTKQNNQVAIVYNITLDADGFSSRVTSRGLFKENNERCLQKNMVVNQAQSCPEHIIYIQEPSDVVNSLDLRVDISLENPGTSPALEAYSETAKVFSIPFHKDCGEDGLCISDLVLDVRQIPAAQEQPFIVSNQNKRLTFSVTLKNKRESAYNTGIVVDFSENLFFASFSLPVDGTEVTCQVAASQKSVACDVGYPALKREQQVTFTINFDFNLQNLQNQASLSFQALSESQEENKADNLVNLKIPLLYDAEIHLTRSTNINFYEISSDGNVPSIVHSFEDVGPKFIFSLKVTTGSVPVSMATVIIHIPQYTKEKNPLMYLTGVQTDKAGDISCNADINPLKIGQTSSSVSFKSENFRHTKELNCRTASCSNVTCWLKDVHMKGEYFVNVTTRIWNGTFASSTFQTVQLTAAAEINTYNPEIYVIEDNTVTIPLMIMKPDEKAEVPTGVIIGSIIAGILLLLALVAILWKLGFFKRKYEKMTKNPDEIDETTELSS
On the procedure: (§1) To identify the epitope of the deposited integrin alpha-11 monoclonal antibodies. C2C12 cells were transfected with plasmids containing cDNAs encoding human integrin alpha-2-mCherry, human integrin alpha-11-EGFP, chimeric alpha-11Ialpha2mCherry or chimeric alpha-21-alpha-11EGFP as shown in FIG. 4a. Transfection was conducted as described in the art. 2% paraformaldehyde/PBS fixed transfected C2C12 cells were incubated with either antibody 203E1H5, see FIG. 4b or with antibody 234H11E8, see FIG. 4c, mouse anti-human alpha-11 IgG antibodies according to the present invention and then incubated with conjugated goat-anti mouse IgG, Alexa Fluor® 647 and analysed using a FACS Accuri measuring the dye accordingly.

Test [2] has as its target T2, chimeric human integrin alpha-2 carrying the alpha-11 I-domain, mCherry fusion, on C2C12 cells (human, UniProt P17301 30-168; Q9UKX5 161-355; P17301 367-1181).
T2 construct: also called chimeric alpha-11Ialpha2mCherry; not shown: mCherry tag
T2 sequence (looked up): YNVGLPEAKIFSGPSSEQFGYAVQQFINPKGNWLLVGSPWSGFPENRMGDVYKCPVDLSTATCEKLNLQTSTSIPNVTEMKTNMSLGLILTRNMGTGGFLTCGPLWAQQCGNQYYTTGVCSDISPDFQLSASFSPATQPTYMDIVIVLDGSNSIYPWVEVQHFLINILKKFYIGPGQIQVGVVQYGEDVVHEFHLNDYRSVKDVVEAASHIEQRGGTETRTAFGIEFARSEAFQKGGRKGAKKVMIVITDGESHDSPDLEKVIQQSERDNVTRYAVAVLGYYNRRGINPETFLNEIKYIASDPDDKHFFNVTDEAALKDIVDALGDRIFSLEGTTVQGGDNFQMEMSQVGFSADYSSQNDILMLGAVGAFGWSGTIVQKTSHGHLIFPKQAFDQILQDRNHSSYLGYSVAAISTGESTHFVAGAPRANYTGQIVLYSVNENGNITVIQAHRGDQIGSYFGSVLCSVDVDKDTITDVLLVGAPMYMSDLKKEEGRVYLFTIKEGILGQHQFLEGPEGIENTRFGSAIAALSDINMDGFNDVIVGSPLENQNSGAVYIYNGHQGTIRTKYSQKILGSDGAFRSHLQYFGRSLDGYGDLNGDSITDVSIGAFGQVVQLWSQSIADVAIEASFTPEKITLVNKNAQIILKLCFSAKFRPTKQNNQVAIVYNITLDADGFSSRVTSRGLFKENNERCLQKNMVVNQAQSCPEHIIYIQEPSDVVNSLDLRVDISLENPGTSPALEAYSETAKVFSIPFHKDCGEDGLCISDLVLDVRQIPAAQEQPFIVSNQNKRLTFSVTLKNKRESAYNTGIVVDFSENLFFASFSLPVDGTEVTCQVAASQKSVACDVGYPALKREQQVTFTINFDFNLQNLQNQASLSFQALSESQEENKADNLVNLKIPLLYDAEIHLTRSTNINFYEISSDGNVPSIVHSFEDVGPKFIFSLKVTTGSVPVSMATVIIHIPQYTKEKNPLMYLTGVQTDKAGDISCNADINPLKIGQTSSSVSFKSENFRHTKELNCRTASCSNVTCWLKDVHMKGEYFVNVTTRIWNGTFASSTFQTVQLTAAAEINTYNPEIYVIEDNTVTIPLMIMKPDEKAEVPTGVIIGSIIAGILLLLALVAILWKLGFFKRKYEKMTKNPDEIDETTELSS
On the procedure: as §1

Test [3] addresses T3, human integrin α11-EGFP expressed on C2C12 mouse myoblast cells (human, UniProt Q9UKX5 23-1188).
T3 construct: whole, on cells; Alpha chain fused to EGFP, expressed in mouse C2C12 cells, which express no human integrins; the beta-1 partner chain on these cells is not described; In the Western blot the cell lysate was used; also called C2C12-α11 EGFP; C2C12-hu α11-EGFP; not shown: EGFP tag
T3 sequence (looked up): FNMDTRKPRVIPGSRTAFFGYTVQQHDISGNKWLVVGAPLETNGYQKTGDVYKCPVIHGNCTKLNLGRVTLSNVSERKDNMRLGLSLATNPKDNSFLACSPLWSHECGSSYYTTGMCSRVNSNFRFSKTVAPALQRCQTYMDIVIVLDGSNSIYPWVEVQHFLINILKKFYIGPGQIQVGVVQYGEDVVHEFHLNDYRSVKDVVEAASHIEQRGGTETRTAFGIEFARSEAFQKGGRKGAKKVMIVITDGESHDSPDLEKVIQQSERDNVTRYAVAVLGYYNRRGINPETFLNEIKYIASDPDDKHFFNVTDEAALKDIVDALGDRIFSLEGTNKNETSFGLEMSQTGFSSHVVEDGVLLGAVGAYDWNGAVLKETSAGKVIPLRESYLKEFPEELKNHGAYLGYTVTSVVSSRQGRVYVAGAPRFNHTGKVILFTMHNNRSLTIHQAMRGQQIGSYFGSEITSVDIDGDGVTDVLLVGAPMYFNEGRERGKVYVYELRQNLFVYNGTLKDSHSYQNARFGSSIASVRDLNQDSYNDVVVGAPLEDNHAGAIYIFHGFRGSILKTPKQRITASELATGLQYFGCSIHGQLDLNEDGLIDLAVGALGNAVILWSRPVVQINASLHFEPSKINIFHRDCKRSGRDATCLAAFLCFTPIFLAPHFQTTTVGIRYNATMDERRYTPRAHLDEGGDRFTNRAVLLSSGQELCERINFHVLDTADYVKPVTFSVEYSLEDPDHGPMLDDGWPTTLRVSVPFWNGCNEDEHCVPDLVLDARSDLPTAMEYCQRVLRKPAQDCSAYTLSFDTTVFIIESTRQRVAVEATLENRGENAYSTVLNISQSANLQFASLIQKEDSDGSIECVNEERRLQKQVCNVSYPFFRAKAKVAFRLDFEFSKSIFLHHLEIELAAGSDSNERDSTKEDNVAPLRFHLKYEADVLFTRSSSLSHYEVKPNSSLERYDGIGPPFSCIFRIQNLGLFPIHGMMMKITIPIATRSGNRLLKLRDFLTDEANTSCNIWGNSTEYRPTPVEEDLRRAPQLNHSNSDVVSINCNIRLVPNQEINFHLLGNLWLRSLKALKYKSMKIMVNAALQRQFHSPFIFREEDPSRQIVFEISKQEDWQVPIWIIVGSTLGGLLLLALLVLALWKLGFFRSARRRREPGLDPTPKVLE
As to the method: as §1

B1: monoclonal mouse antibody 203 E1H5 produced by the hybridoma deposited as DSM ACC3318 (antibody, V domains shown)
VH: QVQLKESGPGLVAPSQSLSITCTVSGFSLTNYAVHWVRQSPGKGLEWLGVIWSYGSTDYNAAFISKLSISKDNSKSQVFFTMSSLQADDTAIYYCARSQIYGGFYDFFDFWGQGTTLTVSS
VL: CDIQMTQTPSSLSASLGDRVTIICRASQDISNFLNWFQQKPDGTIKLLIYYSSRLHSGVPSRFSGSGSGTDYSLTISNLEQEDLATYFCQQGNTLPLTFGAGTKLELT
notes: Mouse anti-human alpha-11 IgG from a hybridoma (NT-HRM mice); used as hybridoma supernatant or mAb; also called 203E1H5 mAb; α11 203E1H5 mAb
Turning to B1, the binding result in test [1] and in test [2] was “no binding” in each case.

B2: monoclonal mouse antibody 234 H11E8 produced by the hybridoma deposited as DSM ACC3319 (antibody, V domains shown)
VH: QVQLKESGPGLVAPSQSLSITCTVSGFSLTNSAVHWVRQSPGKGLEWLGVVWSYGSTDYNAAFISRLSITKDNSKSQVFFKMNSLQADDTAIYYCARSQIYADYYDYFDYWGQGTTLTVSS
VL: DIQMTQSTSSLSASLGDRVTISCRASQDISNFLNWSQQKPDGTVKLLIYYTSRLHSGVPSRFSGSGSGTDYSLTISNLEQEDIGTYFCQQGNTLPLTFGAGTKLELR
notes: Mouse anti-human alpha-11 IgG from a hybridoma (NT-HRM mice); used as hybridoma supernatant or mAb; constant regions are not; also called 234H11E8 mAb; α11 234H11E8 mAb
Take B2: the binding result was “binds” in test [3], “no binding” in test [1] and “no binding” in test [2].

Source of the values: patent US20210079099A1 (VESTLANDETS INNOVASJONSSELSKAP, published 2021).
